Assay results: patent publication US6861578B1, “Method for plant protection against insects or nematodes by transformation with a nucleic acid encoding equistatin” (Plant Research International B.V., priority 1997, dated 2005)

Experiments:
[1] = biological target: potato protease inhibitor-insensitive cysteine proteases of Colorado potato beetle (Leptinotarsa decemlineata) larval gut extracts; test: cell-based or functional assay
[2] = biological target: proteases in extracts of adult western flower thrips (Frankliniella occidentalis); test: cell-based or functional assay
[3] = biological target: proteases in extracts of adult leafminer flies (Liriomyza trifolii); test: cell-based or functional assay
[4] = biological target: T1, papain (UniProt P00784 134-345); test: continuous rate enzyme inhibition assay with papain
T1 construct: also called cysteine proteinase, papain
T1 sequence (looked up): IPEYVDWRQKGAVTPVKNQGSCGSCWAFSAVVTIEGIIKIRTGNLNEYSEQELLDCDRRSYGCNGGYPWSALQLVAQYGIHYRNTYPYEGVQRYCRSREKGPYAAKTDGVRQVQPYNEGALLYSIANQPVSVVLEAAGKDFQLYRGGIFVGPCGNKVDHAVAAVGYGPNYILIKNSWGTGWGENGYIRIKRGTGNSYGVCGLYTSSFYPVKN

[5] = biological target: T1, papain; test: continuous rate enzyme inhibition assay with papain; Ki = kd/ka
[6] = biological target: T2, cathepsin D (Homo sapiens, UniProt P07339); test: active site titration of cathepsin D with equistatin (FIG. 12)
[7] = biological target: T2, cathepsin D; test: steady state inhibition of cathepsin D hydrolysis of chromophoric substrate
[8] = biological target: T1, papain; test: papain titration in microtiter plate, Z-Phe-Arg-pNA substrate
Experimental: In a microtiterplate 20 µl papain solution (a fresh solution of 1 mg/ml (Sigma) in MES buffer titrated with E-64 to determine the active fraction, usually 17%) is combined with 0–80 µl of known protein concentration. MES buffer (50 mM MES, pH 6.5; 0.6 mg/ml L-cysteine; 1 mg/ml BSA fraction V) is added to a final volume of 150 µl. The mixture is incubated for 30 min at room temperature and subsequently 50 µl of substrate solution (60 µl of 15 mg/ml Z-Phe-Arg-pNA dissolved in methanol is diluted in 940 µl MES buffer before use). The plate is immediately placed in the nicrotiterplate reader and measured at 405 nm. Readings up to an OD600 of 0.3 are linear. Rates of change are used to determine the activity with increasing amounts of inhibitor. Results are graphically represented and at stoichiometric concentrations the amount of dissociated complex is determined to determine the apparent equilibrium dissociation constant (Ki). […] The apparent equilibrium dissociation constant for papain was estimated to be 0.6 nM in agreement with the data published for the purified protein (Lenarcic et al. (1997) J. Biol. Chem. 272: 13899–13903.

[9] = biological target: Colorado potato beetle larval gut proteases (total gut extract, pH 3); test: cell-based or functional assay
[10] = biological target: western corn rootworm (Diabrotica virgifera) third instar larval gut proteases; test: cell-based or functional assay

B1: equistatin, isolated from sea anemone Actinia equina (protein)
chain: SLTLCGGLGASAASGLIGTTVPGCLGTGGPGGLGCTGSTGTCTCVAGAGLGILGTLIAGSPACSAALAALTLCGMMGAIIVAVPGTCGPPSCLAAGSPAGVGCCASAGGCTCVALLGLGLGGTAGGGAPTCGAHLSGCGGAAILAHSASLAVGMPVPGCLGAGSTAPVGCTPSTGTCTCVAGGGVLVPGSAVAPLAPTC
With B1 the residual amino-peptidase activity (L-Arg-pNA), equimolar inhibitor (% of residual activity) [1] was 85, the residual amino-peptidase activity (L-Arg-pNA), excess inhibitor (% of residual activity) [1] was 75 and the residual broad spectrum endoprotease activity (Z-Phe-Arg-pNA), equimolar inhibitor (% of residual activity) [1] was 30. It also gave a residual broad spectrum endoprotease activity (Z-Phe-Arg-pNA), excess inhibitor (% of residual activity) [1] of 20, a residual general proteolytic activity (azocasein) in excess of inhibitor (% residual activity) [1] of 10 and a residual narrow spectrum endoprotease activity (Z-Arg-Arg-pNA), equimolar inhibitor (% of residual activity) [1] of 20. It also gave a residual narrow spectrum endoprotease activity (Z-Arg-Arg-pNA), excess inhibitor (% of residual activity) [1] of -5, a residual tri-peptidil-peptidase and endoprotease activity (pGlu-Phe-Leu-pNA), equimolar inhibitor (% of residual activity) [1] of 10 and a residual tri-peptidil-peptidase and endoprotease activity (pGlu-Phe-Leu-pNA), excess inhibitor (% of residual activity) [1] of -5. For the same binder, the residual protease activity (FITC-hemoglobin), pH 3.5 (% residual activity) [2] was 5, the residual protease activity (FITC-hemoglobin), pH 3.5 (% residual activity) [3] was 24 and the koff [4] was 0.0065 s⁻¹. It also gave a kon [4] of 1.2e+07 M⁻¹ s⁻¹, a Ki [5] of 0.57 nM and a binding stoichiometry (mol equistatin per mol cathepsin D) [6] of 1. For the same binder, the Ki [7] was 0.3 nM.

B2: recombinant equistatin (expressed in E. coli from pB3-equistatin, purified on papain-sepharose) (other, not shown: large carriers; small tags and cut ends)
chain: SLTKCQQLQASANSGLIGTYVPQCKETGEFEEKQCWGSTGYCWCVDEDGKEILGTKIRGSPDCSRRKAALTLCQMMQAIIVNVPGWCGPPSCKADGSFDEVQCCASNGECYCVDKKGKELEGTRQQGRPTCERHLSECEEARIKAHSNSLRVEMFVPECLEDGSYNPVQCWPSTGYCWCVDEGGVKVPGSDVRFKRPTC
notes: also called EI
In the case of B2, the Ki [8] is reported as 0.6 nM, the inhibition of total protease activity (FITC-hemoglobin), pH 3 [9] is reported as 62 % inhibition and the residual protease activity (FITC-hemoglobin), pH 3 (% residual activity) [9] is reported as 36. For the same binder, the residual protease activity (FITC-hemoglobin), pH 3 (% residual activity) [10] was 2 and the residual protease activity (FITC-hemoglobin), pH 6.5 (% residual activity) [10] was 7.
